Results on six molecules are retold here after patent publication US20050238685A1, “Method of binding a compound to a surface” (priority 2002, published 2005).

Where two headings read alike, the source gives them in different places.

The nature of data set [1]: Different enzymes immobilized via SC3 hydrophobin on TEFLON, spectrophotometry at 412 and 435 nm. The conditions noted are these: SC3-coated TEFLON; for function after storage: 4° C. in buffer solution. The data set is classed as biochemical. The method, then: The surface was first coated with SC3 hydrophobin by immersion in the protein aqueous solution (0.3 mg/mL) during approximately 30 minutes. The obtained modified surface was then immersed in an aqueous enzyme solution during approximately 30 minutes. After each step, the TEFLON™ surface was rinsed with an adequate buffer solution. Activity of the immobilized enzymes was followed by spectrophotometry at 412 and 435 nm after immersion of the functionalized surface in the corresponding substrate solution. The optical density of the solution increases after the immersion of the functionalized surface and stays constant after its removal. […] The functionalized TEFLON® was stored at 4° C. in an Eppendorf tube containing a buffer solution.
(Biocatalysts, Wales; final concentration 2.1 mg/mL), lipase from Candida cylindracea (Biocatalysts, Wales; final concentration 0.25 mg/mL), porcine liver esterase (SIGMA; 41 U/mg of solid, final concentration 2.4 mg/mL), bovine pancreas trypsin (SIGMA; 8,750 U/mg of solid).

Data set [2] in a line: Circular dichroism of enzymes on binding to bare or hydrophobin-coated colloidal TEFLON. It counts as physicochemical. The conditions noted are these: bare colloidal TEFLON. (In general: Circular dichroism is the unequal absorption of left and right circularly polarised light.)
Data set [3] is classed as biochemical. The method, then: The sheets were removed from the hydrophobin solution and were immediately washed with large amounts of water to remove any unbound hydrophobin (5×50 ml water for five minutes); these coatings are referred to as the α-helix state. Part of the sheets were boiled in a 2% SDS solution for ten minutes, after which the sheets were extensively washed with water; these coatings are referred to as the β-sheet state. The colloidal TEFLON™ was collected by gentle centrifugation (two minutes, 2000 rpm), the supernatant was removed and the TEFLON™ pellet was resuspended in 2 ml pure water followed by centrifugation. The TEFLON™ pellet was washed five times with water to remove all unbound hydrophobin.
The bare and hydrophobin-coated sheets (α-helix state and β-sheet state) were incubated in 2 ml of enzyme solution in 3 ml glass vials at 25° C. for two hours. The used enzyme solutions were 100 μg/ml of 60 kD esterase (porcine liver), 40 kD lipase (wheat germ), or 25 kD trypsin (bovine pancreas). The sheets were washed extensively with water to remove any unbound enzyme.
The sheets with and without immobilized enzyme were used in a chromogenic assay. A 1.5 ml cuvette was filled with 1 ml of a 5 mM 4-nitrophenyl acetate solution (esterase substrate), 5 mM Na-benzoyl-DL-arginine-p-nitroanilide (trypsin substrate), or 5 mM 1,2-di-O-decanoyl-rac-glycero-3-glutaric acid-resorufin labeled in the appropriate buffers. The cuvette was placed in the spectrophotometer and the reaction was started by placing the hydrophobin-coated sheets with or without immobilized enzyme in the cuvette parallel to the light beam. The light absorbance at the appropriate wavelength was followed in time. After one hour of incubation, the sheets were taken from the cuvette and the reaction in the cuvette was followed for an additional 24 hours. The sheets were washed with water and were transferred to a new cuvette with fresh substrate and the reaction was followed again. […] 400 μl of a 100 μg/ml solution of the mentioned enzymes was added to a 1 mm cuvette and a circular dichroism spectrum was recorded between 190 and 250 nm. To this solution, increasing concentrations of pure colloidal TEFLON™ or hydrophobin-coated TEFLON™ was added and changes were followed by recording CD-spectra. […] When TEFLON™ coated with hydrophobin is added to the enzyme solutions, the changes in CD signal (after correction for the hydrophobin signal) are less pronounced. […] Furthermore, oil droplets were coated with hydrophobin. Coating of oil droplets was achieved by emulsifying 100 μl of oil (mineral oil or paraffin oil) in 3 ml of water by sonication and adding 3 ml of an aqueous solution of hydrophobin (200 μg/ml). Alternatively, the oil was directly emulsified in the hydrophobin solution and 3 ml was added. […]

Data set [4] can be described thus: Esterase, lipase and trypsin on SC3-coated oil droplets, spectrophotometric substrate conversion. It counts as biochemical. The method, then:
The sheets with and without immobilized enzyme were used in a chromogenic assay. A 1.5 ml cuvette was filled with 1 ml of a 5 mM 4-nitrophenyl acetate solution (esterase substrate), 5 mM Na-benzoyl-DL-arginine-p-nitroanilide (trypsin substrate), or 5 mM 1,2-di-O-decanoyl-rac-glycero-3-glutaric acid-resorufin labeled in the appropriate buffers. The cuvette was placed in the spectrophotometer and the reaction was started by placing the hydrophobin-coated sheets with or without immobilized enzyme in the cuvette parallel to the light beam. The light absorbance at the appropriate wavelength was followed in time. After one hour of incubation, the sheets were taken from the cuvette and the reaction in the cuvette was followed for an additional 24 hours. The sheets were washed with water and were transferred to a new cuvette with fresh substrate and the reaction was followed again. […] 400 μl of a 100 μg/ml solution of the mentioned enzymes was added to a 1 mm cuvette and a circular dichroism spectrum was recorded between 190 and 250 nm. To this solution, increasing concentrations of pure colloidal TEFLON™ or hydrophobin-coated TEFLON™ was added and changes were followed by recording CD-spectra. […] When TEFLON™ coated with hydrophobin is added to the enzyme solutions, the changes in CD signal (after correction for the hydrophobin signal) are less pronounced. […]

The conditions of data set [5]: class I: resisting 2% SDS at 100° C., class II: 60% ethanol; cited from earlier work.
For data set [6] the following is noted: at 50 μg ml^−1; cited from earlier work.
The conditions of data set [7]: cited from earlier work.

B1: trypsin: bovine pancreas trypsin, 25 kD (protein)
chain: IVGGYTCGANTVPYQVSLNSGYHFCGGSLINSQWVVSAAHCYKSGIQVRLGEDNINVVEGNEQFISASKSIVHPSYNSNTLNNDIMLIKLKSAASLNSRVASISLPTSCASAGTQCLISGWGNTKSSGTSYPDVLKCLKAPILSDSSCKSAYPGQITSNMFCAGYLEGGKDSCQGDSGGPVVCSGKLQGIVSWGSGCAQKNKPGVYTKVCNYVSWIKQTIASN
Regarding B1, in data set [1], the “state of immobilized enzymes (denaturation, desorption)” value is “not denatured and are not desorbed from the surface”; the function after storage result is listed as “still functional after several weeks”. The “structural change in CD-spectra upon binding” value in data set [2] is on record as “underwent structural changes”. In data set [3], the “activity and stability of enzyme attached to hydrophobin-coated sheets” value was “active and stable for up to one month”; the “activity of enzyme attached to bare sheets” value is given as “not active”. The “catalytic activity of immobilized enzyme” value in data set [4] is “still catalytically active”.

B2: cerato-ulmin: class II hydrophobin of Ophiostoma ulmi (protein, UniProt Q06153 26-100, looked up)
Class II hydrophobin CU: SDSYDPCTGLLQKSPQCCNTDILGVANLDCHGPPSVPTSPSQFQASCVADGGRSARCCTLSLLGLALVCTDPVGI
On to B2, for which the “solubility of assembled membranes” value in data set [5] is “readily dissociate in 60% ethanol and in 2% SDS”.

B3: alkaline phosphatase: human placental alkaline phosphatase (Roche) (protein)
chain: IIPVEEENPDFWNREAAEALGAAKKLQPAQTAAKNLIIFLGDGMGVSTVTAARILKGQKKDKLGPEIPLAMDRFPYVALSKTYNVDKHVPDSGATATAYLCGVKGNFQTIGLSAAARFNQCNTTRGNEVISVMNRAKKAGKSVGVVTTTRVQHASPAGTYAHTVNRNWYSDADVPASARQEGCQDIATQLISNMDIDVILGGGRKYMFRMGTPDPEYPDDYSQGGTRLDGKNLVQEWLAKRQGARYVWNRTELMQASLDPSVTHLMGLFEPGDMKYEIHRDSTLDPSLMEMTEAALRLLSRNPRGFFLFVEGGRIDHGHHESRAYRALTETIMFDDAIERAGQLTSEEDTLSLVTADHSHVFSFGGYPLRGSSIFGLAPGKARDRKAYTVLLYGNGPGYVLKDGARPDVTESESGSPEYRQQSAVPLDEETHAGEDVAVFARGPQAHLVHGVQEQTFIAHVMAFAACLEPYTACDLAPPAGTTD
For the molecule B3, the “activity of enzyme attached to bare wells” value is given as “not active”.

B4: SC3: class I hydrophobin of Schizophyllum commune (protein)
chain: GGHPGTTTPPVTTTVTVTTPPSTTTIAAGGTCTTGSLSCCNQVQSASSSPVTALLGLLGIVLSDLNVLVGISCSPLTVIGVGGSGCSAQTVCCENTQFNGLINIGCTPINIL
Take B4: in data set [6], the “maximal lowering of the water surface tension, from 72 to” value is 24 mJ m^−2. In data set [7] (TEFLON (110°) coated with hydrophobin), the “water contact angle of coated TEFLON” value is listed as 48 °. Besides, the water contact angle in data set [7] (hydrophilic side of the membrane) is 36 °; in data set [7] (hydrophobic side of the membrane), 110 °.

B5: esterase: porcine liver esterase, 60 kD (protein)
chain: GQPASPPVVDTAQGRVLGKYVSLEGLAQPVAVFLGVPFAKPPLGSLRFAPPQPAEPWSFVKNTTSYPPMCCQDPVVEQMTSDLFTNGKERLTLEFSEDCLYLNIYTPADLTKRGRLPVMVWIHGGGLVLGGAPMYDGVVLAAHENVVVVAIQYRLGIWGFFSTGDEHSRGNWGHLDQVAALHWVQENIANFGGDPGSVTIFGESAGGESVSVLVLSPLAKNLFHRAISESGVALTVALVRKDMKAAAKQIAVLAGCKTTTSAVFVHCLRQKSEDELLDLTLKMKFLTLDFHGDQRESHPFLPTVVDGVLLPKMPEEILAEKDFNTVPYIVGINKQEFGWLLPTMMGFPLSEGKLDQKTATSLLWKSYPIANIPEELTPVATDKYLGGTDDPVKKKDLFLDLMGDVVFGVPSVTVARQHRDAGAPTYMYEFQYRPSFSSDKKPKTVIGDHGDEIFSVFGFPLLKGDAPEEEVSLSKTVMKFWANFARSGNPNGEGLPHWPMYDQEEGYLQIGVNTQAAKRLKGEEVAFWNDLLSKEAAKKPPKIKHAEL
Consider B5, for which, in data set [1], the “state of immobilized enzymes (denaturation, desorption)” value is “not denatured and are not desorbed from the surface”; the function after storage entry is “still functional after several weeks”. Moreover, the “structural change in CD-spectra upon binding” value in data set [2] was “underwent structural changes”. Also, in data set [3], the “activity and stability of enzyme attached to hydrophobin-coated sheets” value was “active and stable for up to one month”; the “activity of enzyme attached to bare sheets” value is reported as “not active”. Besides, the “catalytic activity of immobilized enzyme” value in data set [4] is “still catalytically active”.

B6: cryparin: class II hydrophobin of Cryphonectria parasitica (protein, UniProt P52753 23-118, looked up)
Class II hydrophobin CRP: GGGGGGSGSGSGSGSGSGSGGGSTTYTACSSTLYSEAQCCATDVLGVADLDCETVPETPTSASSFESICATSGRDAKCCTIPLLGQALLCQDPVGL
Regarding B6, in data set [5], the “solubility of assembled membranes” value was “readily dissociate in 60% ethanol and in 2% SDS”.
